According to the RNAGym collection of RNA variant scans (doi:10.1021/acssynbio.7b00057):

B1: Pistol ribozyme (parent)
chain: GGGUCGUUGUUCCAUAAUCGCGUGGAUAUGGCACGCAAGUUUCUACCGGGCACCGUAAAUGUCCGACUGGAGCCGUUCGGGCGGCUAUAAACAGACCUCAGGCCCGAAGCGUGGCGGCACCUGCCGCCGGUGGUAAAAAAGAUCGGAAGAGCACACGUCU

Variants of: B1
Assay: aptazyme ON/OFF ratio, guanine; higher = stronger switching; co-transcriptional cleavage with and without guanine

Variant	aptazyme ON/OFF ratio
G9A U10A C12G C13A	1.47
U8G U11C C12U C13U	1.3
U8G U11C C12U C13G	1.29
U8G U11C C12U C13A	1.33
U8G U10C U11A C12U	1.28
U8G U10C U11A C12G	1.26
U8G U10C U11A C12A	1.39
U8G U10G	1.32
U8G U10A	1.15
U8G U10C	3.87
U8G U10C U11G C12A C13G	1.13
U8G U10C U11G C12A C13U	1.2
U8G U10C U11G C12A C13A	1.16
U8G U11G C13A	1.04
U8G U11G C13U	1.03
U8G U11G C13G	1.05
U8G U10A C13U	1.19
U8G U10A C13G	1.12
U8G U10A C13A	1.14
U8G G9U U11G C12U C13U	1.16
U8G G9U U11G C12U C13G	1.1

Variant	aptazyme ON/OFF ratio
U8G G9U U11G C12U C13A	1.13
U8G U10G U11G C12A C13G	1.05
U8G U10G U11G C12A C13U	1.18
U8G U10G U11G C12A C13A	1.08
G9A U10A U11A C12U C13U	1.57
G9A U10A U11A C12U C13A	1.3
G9A U10A U11A C12U C13G	1.3
G9A U10A U11C C12A C13G	1.23
G9A U10A U11C C12A C13U	1.41
G9A U10A U11C C12A C13A	1.38
U8G U11C C12G C13U	1.2
U8G U11C C12G C13A	1.25
U8G U11C C12G C13G	1.3
U8G U10G U11A C12U C13U	1.26
U8G U10G U11A C12U C13G	1.22
U8G U10G U11A C12U C13A	1.14
U8G U10G U11C C12U	1.02
U8G U10G U11C C12G	1.11
U8G U10G U11C C12A	1.06
U8G U10G U11A	1.26
U8G U10G U11C	1.05

Variant	aptazyme ON/OFF ratio
U8G U10G U11G	1.45
U8G U10G U11G C12G C13U	1.29
U8G U10G U11G C12G C13A	1.15
U8G U10G U11G C12G C13G	1.1
U8G U10C U11A C12A C13G	1.11
U8G U10C U11A C12A C13A	1.16
U8G U10C U11A C12A C13U	1.24
U8G U10G U11A C12G	1.28
U8G U10G U11A C12A	1.18
U8G U10G U11A C12U	1.38
G9A C13G	1.07
G9A C13U	1.52
G9A C13A	1.45
U8G U10C U11C C12A C13G	1.11
U8G U10C U11C C12A C13U	1.05
U8G U10C U11C C12A C13A	1.1
U8G U10G C12A C13A	1.26
U8G U10G C12A C13G	1.19
U8G U10G C12A C13U	1.17
U8G G9U U11G C12A	1.32
U8G G9U U11G C12U	1.27

Variant	aptazyme ON/OFF ratio
U8G G9U U11G C12G	1.39
U8G U10G U11G C12U	1.44
U8G U10G U11G C12G	1.07
U8G U10G U11G C12A	1.09
U8G U11A C12G C13U	1.09
U8G U11A C12G C13A	1.1
U8G U11A C12G C13G	1.09
G9A U10A U11C C13U	1.01
G9A U10A U11C C13G	1.09
G9A U10A U11C C13A	1.13
U8G U10A C12U C13U	1.3
U8G U10A C12U C13A	1.32
U8G U10A C12U C13G	1.32
U8G U10A U11A	1.71
U8G U10A U11G	1.34
U8G U10A U11C	1.02
G9A U10A U11G C12A	1.02
U8G U10C C12U C13A	1.05
U8G U10C C12U C13G	1.07
U8G U10C C12U C13U	1.17
